Assays:
F508del-CFTR [1] = target: T1, F508del-CFTR (Homo sapiens, UniProt P13569, DEL508-508); assay: Iodide efflux assay on JME/CF15 cells (rescue of F508del-CFTR function); type: cell-based; conditions: for effect on iodide efflux, alone / plateau concentration (iodide efflux rate) / EC50: JME/CF15 cells at 37° C.; for effect on iodide efflux, alone: acute treatment with 1 μM VX770 alone (FIG. 6A); for effect on iodide efflux in combination with VX-770: 350 nM PB1046 18 hours or 140 nM PB1120 24 hours, plus acute 1 μM VX-770 (FIG. 6B, C); for correct and/or potentiate the activity of F508del-CFTR (iodide efflux) compared with VX-809 and VX-661: 37° C., 900 nM VIP 24 h, 1 μM PB1120 24 h, 1.2 μM PB1046 18 h, versus 1 μM VX809 24 h, 3 μM VX661 24 h (FIG. 5); for plateau concentration (iodide efflux rate) / EC50: pre-incubated 2 hours at 30-3,500 nM, then cAMP activator cocktail, n=3-5; for EC50: read-out: EC50 (iodide efflux rate)
T1 construct: A human nasal epithelial cell line JME/CF15, derived from a Cystic Fibrosis patient homozygous for the F508del mutation; endogenous in cells; host or cells: JME/CF15 human nasal epithelial cell line (CF patient, F508del homozygous)
Experimental: A human nasal epithelial cell line JME/CF15, derived from a Cystic Fibrosis patient homozygous for the F508del mutation (Jefferson (1990)) was used to evaluate the effect of VIP compounds on CFTR protein function. Cells were cultured at 37° C. with at 5% CO2— 95% humidity in DMEM-F12 with 10% FBS and supplemented with transferrin (5 μg/ml), triiodothyronine (2 nM), insulin (5 μg/ml), hydrocortisone (1.1 μM), EGF (1.64 nM), epinephrine (5.5 μM), and adenine (18 μM). Cells were maintained at 37° C. and incubated with […] VIP, 1.2 μM PB1046 (SEQ ID NO: 15), or 1 μM PB1120 (SEQ ID NO: 20) for 18 or 24 hours before the assaying for iodide efflux. For comparison, cells were incubated with the CFTR correctors VX-809 (lumacaftor) or VX-661.
To evaluate the effect of test compounds on CFTR protein function, the activity of the CFTR chloride channel was determined by studying the efflux of iodide ions using an iodide sensitive electrode. Cells were incubated with NaI loading buffer (136 mM NaI, 3 mM KNO3, 2 mM Ca(NO3), 11 mM glucose, 20 mM HEPES, pH 7.4) for 1 hour at room temperature. Extracellular NaI solution was then removed and replaced with efflux buffer in which NaI was replaced with NaNO3. Samples were taken and replaced at 1 minute intervals. The first 3 samples taken before addition of the CFTR activation cocktail (time 0-2 min) were used to establish a stable baseline of ion efflux. CFTR activation cocktail (150 μM cpt-cAMP+1 mM IBMX+10 μM forskolin) was included in the efflux buffer from time 3 minutes. NaI concentration was then measured using an iodide sensitive electrode moved over each sample by a computerised autosampler and the NaI efflux rate constant k (min^−1) was calculated. Iodide efflux peaks (maximum efflux rate during stimulation—basal level) were compared.
Iodide efflux rates were measured on JME/CF15 cells maintained at 37° C. and pre-incubated with VIP, PB1046, or PB1120 at 30-3,500 nM for 2 hours. […] Rescued F508del-CFTR was stimulated by a cAMP activator cocktail added to the efflux buffer. […] CFTRinh172 (20 μM) was included in the incubation, confirming that the iodide efflux was mediated by CFTR.
To study the effects of administration of PB1120 or PB1046 together with CFTR potentiators or CFTR correctors, iodide efflux assays were performed as described in Example 1.

F508del-CFTR [2] = assay: Immunoblotting / immunostaining of F508del-CFTR maturation and membrane expression in JME/CF15 cells; type: cell-based, human; conditions: JME/CF15 cells at 37° C., incubated with compound for 24 hours (FIG. 4)
Experimental: JME/CF15 cells were immunostained for CFTR (A).
Immunoblotting was performed to visualize the […] of the F508del-CFTR in the epithelial cells treated with VIP, PB1120, or PB1046.

T1 sequence (P13569 with tags, fused parts or gaps DEL508-508): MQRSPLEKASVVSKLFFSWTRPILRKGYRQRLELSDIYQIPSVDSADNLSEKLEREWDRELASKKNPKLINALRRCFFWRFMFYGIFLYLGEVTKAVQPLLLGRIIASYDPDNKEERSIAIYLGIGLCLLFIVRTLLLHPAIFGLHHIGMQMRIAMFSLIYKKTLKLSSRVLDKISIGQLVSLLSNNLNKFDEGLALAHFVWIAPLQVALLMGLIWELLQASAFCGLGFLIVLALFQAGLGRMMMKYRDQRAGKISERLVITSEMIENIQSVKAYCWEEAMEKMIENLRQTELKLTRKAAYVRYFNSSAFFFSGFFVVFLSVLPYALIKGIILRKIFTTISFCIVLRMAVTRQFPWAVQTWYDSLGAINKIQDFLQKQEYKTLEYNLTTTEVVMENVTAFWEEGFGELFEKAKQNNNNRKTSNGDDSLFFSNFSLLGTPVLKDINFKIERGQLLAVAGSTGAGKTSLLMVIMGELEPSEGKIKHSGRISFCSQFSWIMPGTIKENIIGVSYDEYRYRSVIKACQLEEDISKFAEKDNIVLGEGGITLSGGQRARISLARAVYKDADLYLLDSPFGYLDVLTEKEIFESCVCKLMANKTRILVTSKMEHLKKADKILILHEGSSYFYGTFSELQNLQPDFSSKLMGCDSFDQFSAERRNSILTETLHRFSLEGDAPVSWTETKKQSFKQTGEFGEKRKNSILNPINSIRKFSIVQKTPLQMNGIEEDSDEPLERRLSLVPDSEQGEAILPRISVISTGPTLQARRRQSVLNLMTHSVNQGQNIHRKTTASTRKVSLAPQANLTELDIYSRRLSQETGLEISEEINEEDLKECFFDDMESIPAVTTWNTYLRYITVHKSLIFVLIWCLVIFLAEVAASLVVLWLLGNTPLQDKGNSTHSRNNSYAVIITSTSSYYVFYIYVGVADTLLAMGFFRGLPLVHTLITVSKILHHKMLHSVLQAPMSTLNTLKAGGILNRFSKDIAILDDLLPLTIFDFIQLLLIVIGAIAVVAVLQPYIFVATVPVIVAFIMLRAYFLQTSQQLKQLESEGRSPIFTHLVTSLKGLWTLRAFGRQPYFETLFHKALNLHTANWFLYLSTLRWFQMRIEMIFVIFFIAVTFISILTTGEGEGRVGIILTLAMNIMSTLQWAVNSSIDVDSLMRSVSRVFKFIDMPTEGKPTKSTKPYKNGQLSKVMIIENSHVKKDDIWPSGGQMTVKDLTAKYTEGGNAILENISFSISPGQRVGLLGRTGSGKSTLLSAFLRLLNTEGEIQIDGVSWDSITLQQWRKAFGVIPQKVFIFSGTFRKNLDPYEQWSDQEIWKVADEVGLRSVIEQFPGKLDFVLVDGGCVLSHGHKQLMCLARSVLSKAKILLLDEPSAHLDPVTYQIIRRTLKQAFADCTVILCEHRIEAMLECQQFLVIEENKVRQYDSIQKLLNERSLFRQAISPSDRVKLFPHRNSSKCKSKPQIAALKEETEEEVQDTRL

Molecule	iodide efflux activity rescued by VIP therapeutics when the CFTR inhibitor is included (F508del-CFTR [1]; CFTRinh172 20 μM, 30 minutes before and during the efflux experiments (FIG. 3))	effect on iodide efflux, alone (F508del-CFTR [1])	effect on iodide efflux, alone (F508del-CFTR [1]; listed as VX770)	F508del-CFTR maturation and membrane expression (F508del-CFTR [2])	effect on iodide efflux in combination with VX-770 (F508del-CFTR [1])	effect on iodide efflux in combination with VX-809 (F508del-CFTR [1]; 1 μM PB1120 and 1 μM VX-809 for 24 hours (FIG. 7))	correct and/or potentiate the activity of F508del-CFTR (iodide efflux) compared with VX-809 and VX-661 (F508del-CFTR [1])	plateau concentration (iodide efflux rate) (F508del-CFTR [1]) [nM]	EC50 (F508del-CFTR [1]) [nM]
O=C(O)c1ccc(/C=C2\SC(=S)N(c3cccc(C(F)(F)F)c3)C2=O)cc1 [CFTRinh172, reference compound]	significantly reduced								
CC(C)(C)c1cc(C(C)(C)C)c(NC(=O)c2c[nH]c3ccccc3c2=O)cc1O [VX-770, ivacaftor, reference compound]		no effect	did not produce any significant stimulation						
PB1120: long lasting, stable VIP therapeutic which includes ELP sequences; VIP-ELP fusion, SEQ ID NO: 20 (protein, VIP ELP1-120) HSDAVFTDNYTRLRKQMAVKKYLNSILNVPGVGVPGVGVPGGGVPGAGVPGVGVPGVGVPGVGVPGGGVPGAGVPGGGVPGVGVPGVGVPGGGVPGAGVPGVGVPGVGVPGVGVPGGGVPGAGVPGGGVPGVGVPGVGVPGGGVPGAGVPGVGVPGVGVPGVGVPGGGVPGAGVPGGGVPGVGVPGVGVPGGGVPGAGVPGVGVPGVGVPGVGVPGGGVPGAGVPGGGVPGVGVPGVGVPGGGVPGAGVPGVGVPGVGVPGVGVPGGGVPGAGVPGGGVPGVGVPGVGVPGGGVPGAGVPGVGVPGVGVPGVGVPGGGVPGAGVPGGGVPGVGVPGVGVPGGGVPGAGVPGVGVPGVGVPGVGVPGGGVPGAGVPGGGVPGVGVPGVGVPGGGVPGAGVPGVGVPGVGVPGVGVPGGGVPGAGVPGGGVPGVGVPGVGVPGGGVPGAGVPGVGVPGVGVPGVGVPGGGVPGAGVPGGGVPGVGVPGVGVPGGGVPGAGVPGVGVPGVGVPGVGVPGGGVPGAGVPGGGVPGVGVPGVGVPGGGVPGAGVPGVGVPGVGVPGVGVPGGGVPGAGVPGGGVPGVGVPGVGVPGGGVPGAGVPGVGVPGVGVPGVGVPGGGVPGAGVPGGGVPGWP				corrected	synergistic effect	synergism	equivalent or greater extent than VX-809 and VX-661	1000	140
PB1046: long lasting, stable VIP therapeutic which includes ELP sequences; VIP-ELP fusion, SEQ ID NO: 15 (protein, M-VIP ELP1-120) MHSDAVFTDNYTRLRKQMAVKKYLNSILNVPGVGVPGVGVPGGGVPGAGVPGVGVPGVGVPGVGVPGGGVPGAGVPGGGVPGVGVPGVGVPGGGVPGAGVPGVGVPGVGVPGVGVPGGGVPGAGVPGGGVPGVGVPGVGVPGGGVPGAGVPGVGVPGVGVPGVGVPGGGVPGAGVPGGGVPGVGVPGVGVPGGGVPGAGVPGVGVPGVGVPGVGVPGGGVPGAGVPGGGVPGVGVPGVGVPGGGVPGAGVPGVGVPGVGVPGVGVPGGGVPGAGVPGGGVPGVGVPGVGVPGGGVPGAGVPGVGVPGVGVPGVGVPGGGVPGAGVPGGGVPGVGVPGVGVPGGGVPGAGVPGVGVPGVGVPGVGVPGGGVPGAGVPGGGVPGVGVPGVGVPGGGVPGAGVPGVGVPGVGVPGVGVPGGGVPGAGVPGGGVPGVGVPGVGVPGGGVPGAGVPGVGVPGVGVPGVGVPGGGVPGAGVPGGGVPGVGVPGVGVPGGGVPGAGVPGVGVPGVGVPGVGVPGGGVPGAGVPGGGVPGVGVPGVGVPGGGVPGAGVPGVGVPGVGVPGVGVPGGGVPGAGVPGGGVPGVGVPGVGVPGGGVPGAGVPGVGVPGVGVPGVGVPGGGVPGAGVPGGGVPGWP				corrected	synergistic effect		equivalent or greater extent than VX-809 and VX-661	1200	355
